Experimental data: patent publication US5965725A, “Polypeptides, and preparation and DNA encoding thereof” (Seikagaku Kogyo Kabushiki Kaisha, priority 1994, dated 1999)
Ends that are not written are not given here.

Experiments:
Format in all cases: cell-based
Escherichia coli [1] = experiment: Antimicrobial activity, growth inhibition at a single concentration (colony count); conditions: 50 μl of 40 μg/ml polypeptide added to 450 μl of 10,000 CFU/ml suspension in 10 mM phosphate buffer pH 7.0; 37° C. 1 hr
Experimental: (§1) Escherichia coli was suspended in 10 mM phosphate buffer, pH 7.0, at a concentration of 10,000 CFU/ml and 450 μl of the suspension was mixed with 50 μl each of polypeptide fraction T3 (polypeptide of [Formula 4]) (SEQ ID NO:3), T6 (polypeptide of [Formula 5]) (SEQ ID NO:4), and a polypeptide obtained by Example 1 each having a concentration of 40 μg/ml, and as a control 10 mM phosphate buffer, pH 7.0. The mixtures were incubated at 37° C. for 1 hr. Then, 100 μl of incubated mixture was inoculated in an agar medium, cultured at 37° C. for 12 hrs. and the number of colonies were counted with naked eye.

Staphylococcus aureus [2] = experiment: as above; conditions: 50 μl of 40 μg/ml polypeptide added to 450 μl of 5,000 CFU/ml suspension in 10 mM phosphate buffer pH 7.0; 37° C. 1 hr
Experimental: as §1, with “In addition, Staphylococcsii aureus” for “Escherichia coli”, “5,000” for “10,000”, “4]),” for “4]) (SEQ ID NO:3),”

Candida albicans = experiment: Determination of antimicrobial activity (colony count after 1 hr incubation in hypotonic buffer); conditions: 10 mM phosphate buffer pH 7.0 (hypotonic), 37° C. 1 hr, then agar culture 12 hrs
Experimental: (§2) Various microorganisms shown in Table 3 were suspended in 10 mM phosphate buffer, pH 7.0 (hypotonic solution). In 900 μl of 5,000-10,000 CFU/ml suspension, 100 μl of 2-fold serial diluted polypeptide solution at a concentration of 20 μg/ml obtained by Example 1 was added and incubated at 37° C. for 1 hr. Then, 100 μl of incubated mixture was inoculated in an agar medium, cultured at 37° C. for 12 hrs. and the number of colonies was counted with naked eye (see Infections and Immunity, 42, 10-14 (1983)). CFU means colony forming unit.

Escherichia coli [3] = experiment: as above; conditions: 10 mM phosphate buffer pH 7.0 (hypotonic), 37° C. 1 hr, then agar culture 12 hrs
Experimental: as §2

Klebsiella pneumoniae = experiment: as above; conditions: 10 mM phosphate buffer pH 7.0 (hypotonic), 37° C. 1 hr, then agar culture 12 hrs
Experimental: as §2

S. minnesota Re = experiment: as above; conditions: 10 mM phosphate buffer pH 7.0 (hypotonic), 37° C. 1 hr, then agar culture 12 hrs
Experimental: as §2

[4] = tested on: Salmonella typhimurium LT2(S); experiment: as above; conditions: 10 mM phosphate buffer pH 7.0 (hypotonic), 37° C. 1 hr, then agar culture 12 hrs
Experimental: as §2

Staphylococcus aureus [5] = experiment: as above; conditions: 10 mM phosphate buffer pH 7.0 (hypotonic), 37° C. 1 hr, then agar culture 12 hrs
Experimental: as §2

T3: Trypsin degradation fraction of the Example 1 polypeptide, eluted at 27 min; 42 residues, C-terminal defensin-like part (ASSDNHSCAGNRGWCRSKCFRHEYVDTYYSAVCGRYFCCRSR; not fully specified (bridges); cysteine pairing not given here)
inhibited the growth of Escherichia coli at a rate of (Escherichia coli [1]): about 90% | inhibited the growth of Staphylococcus aureus at a rate of (Staphylococcus aureus [2]): about 30%

B1: polypeptide obtained by Example 1: Purified S5 fraction polypeptide from small granules of horseshoe crab hemocytes; 79 amino acids, about 8,200 by SDS-PAGE (protein)
chain: NPLIPAIYIGATVGPSVWAYLVALVGAAAVTAANIRRASSDNHSCAGNRGWCRSKCFRHEYVDTYYSAVCGRYFCCRSR
IC50 (μg/ml) (hypotension) (Candida albicans): 10 to 20 µg/mL | IC50 in hypotonic buffer (Escherichia coli [3]): 2.5 µg/mL | IC50 (μg/ml) (hypotension) (Klebsiella pneumoniae): < 1.3 µg/mL | IC50 (μg/ml) (hypotension) (S. minnesota Re): < 0.6 µg/mL | IC50 (μg/ml) (hypotension) [4]: 20 µg/mL | IC50 (μg/ml) (hypotension) (Staphylococcus aureus [5]): < 2.5 µg/mL | inhibited the growth of Escherichia coli at a rate of (Escherichia coli [1]): ≥ 95% | inhibited the growth of Staphylococcus aureus at a rate of (Staphylococcus aureus [2]): almost completely
